{
  "source": "paper PMC8160069",
  "about": "“Ethacrynic acid targets GSTM1 to ameliorate obesity by promoting browning of white adipocytes” (Protein & Cell, 2020)",
  "molecular_target": "the molecule itself",
  "assay": "crystal structure; co-crystal structure of celastrol with mouse GSTP1",
  "data": [
    {"protein": "mouse GSTP1 (enzyme, UniProt P19157 1-210, looked up, GSTP1 (glutathione S-transferase pi 1), mouse; co-crystallised with celastrol; also called GST pi) MPPYTIVYFPVRGRCEAMRMLLADQGQSWKEEVVTIDTWMQGLLKPTCLYGQLPKFEDGDLTLYQSNAILRHLGRSLGLYGKNQREAAQMDMVNDGVEDLRGKYVTLIYTNYENGKNDYVKALPGHLKPFETLLSQNQGGKAFIVGDQISFADYNLLDLLLIHQVLAPGCLDNFPLLSAYVARLSARPKIKAFLSSPEHVNRPINGNGKQ", "values": [
      {"measurement": "binding result", "result": "binds"}
    ]}
  ]
}
